Results reported in the supplement of paper PMC12764529.
± gives the half width of the 95% confidence interval.

How the values were obtained:
[1] = folding stability dG unfold from trypsin proteolysis; higher = more stable
Method in brief: (§1)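 Mini-proteins designed to be under 80 residues and free of cysteine were carried in a PA-tagged cDNA display construct and digested with trypsin and with chymotrypsin. Each protease was applied at 11 threefold-diluted concentrations, alongside a no-protease condition, before sequencing. K50 came from Bayesian fitting of the sequencing counts, and unfolding free energy was obtained by comparing it with a sequence-predicted unfolded-state K50 and a shared folded-state K50, for each protease separately or for both together. Designs were retained only if their AlphaFold2 dimer inter-PAE exceeded 15.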

[2] = folding stability dG unfold from chymotrypsin proteolysis; higher = more stable
Method in brief: as §1

[3] = folding stability dG unfold (combined trypsin and chymotrypsin); higher = more stable
Method in brief: as §1

Sequence | folding stability dG unfold [1] | folding stability dG unfold [2] | folding stability dG unfold [3]
SAGGSAGGSAGGLDLSVPGLTSVTPVLLEDPRGYVTTVYTTTYPDGTVLTHTTVLPASLLSAGGSAGGSAGG [r7_214_JUSTAS] | 1.09 ± 0.025 kcal/mol | 1.16 ± 0.031 kcal/mol | 1.16 ± 0.024 kcal/mol
SAGGSAGGSAGGLEIVKEVIKNPLKNEPVEVLILIEKKEEPIEKTDLFEIPVKITIIPLSAGGSAGGSAGGS [r10_459_JUSTAS] | 1.29 ± 0.11 kcal/mol | 0.152 ± 0.16 kcal/mol | 0.812 ± 0.19 kcal/mol
SAGGSAGGSAGGLKDALENGYVMIDFEIYNPPNGEPIGEITIMVKVPKPEPDEDGNWQLVSAGGSAGGSAGG [r7_959_TrROS] | 1.34 ± 0.086 kcal/mol | 0.941 ± 0.06 kcal/mol | 1.26 ± 0.16 kcal/mol
SAGGSAGGSAGGLKPGQKVAVFVKVKVKLYRDPATNELTEEVEIEDVFVVDAETKELLLSAGGSAGGSAGGS [r10_248_TrROS_Hall] | 1.98 ± 0.13 kcal/mol | 2.64 ± 0.071 kcal/mol | 2.45 ± 0.12 kcal/mol
SAGGSAGGSAGGLLEIELPSRRILVELKLELKDGKLVKLEIKVKYEGREPEPLTSPEYKSAGGSAGGSAGGS [r10_1043_TrMRF] | 1.71 ± 0.14 kcal/mol | 1.94 ± 0.17 kcal/mol | 1.76 ± 0.44 kcal/mol
SAGGSAGGSAGGLPEDDNYVRVKITFTIMMMEFDPKNGKMQMFPISIEIEIYIPPGAELSAGGSAGGSAGGS [r10_133_TrROS] | 2.36 ± 0.12 kcal/mol | 3.6 ± 0.25 kcal/mol | 3.26 ± 0.22 kcal/mol
SAGGSAGGSAGGLPNIPGFVLLETYSETFNVPLPENRTATITKTLILHPNALLESYSINPSAGGSAGGSAGG [r7_945_TrMRF] | -0.198 ± 0.27 kcal/mol | -0.353 ± 0.23 kcal/mol | -0.251 ± 0.27 kcal/mol
SAGGSAGGSAGGLVPPDAVIPTETTAEEPVYVIDPVTGELTPIGPGVVRRKITRRVPRPSAGGSAGGSAGGS [r10_1115_JUSTAS] | -0.968 ± 0.22 kcal/mol | 0.863 ± 0.056 kcal/mol | 0.514 ± 0.11 kcal/mol
SAGGSAGGSAGGMALIKLPNGEVQPVKIKAIDPDGNILVEPENSEWQTFSFDGLEIIPLPSAGGSAGGSAGG [r7_823_TrMRF] | 0.647 ± 0.041 kcal/mol | 0.955 ± 0.16 kcal/mol | 0.886 ± 0.16 kcal/mol
SAGGSAGGSAGGMEFKPGQEIEIVLKDENGRLIVIKAKVKKVDGKLVIEIEEAYELDDLSAGGSAGGSAGGS [r10_744_TrROS_Hall] | 2.34 ± 0.12 kcal/mol | 2 ± 0.14 kcal/mol | 2.05 ± 0.26 kcal/mol
SAGGSAGGSAGGMEISEKLREYIEKLGKKVSEEEALAIAEEKAKELKEKGIEDVTIVLPVSAGGSAGGSAGG [r7_512_JUSTAS] | -0.0343 ± 0.1 kcal/mol | 0.374 ± 0.072 kcal/mol | 0.399 ± 0.17 kcal/mol
SAGGSAGGSAGGMIEKIEVTKLPDGTYKVTITIPLPNGPVITKTITIPPSETVEDAIAKLSAGGSAGGSAGG [r7_54_JUSTAS] | 2.54 ± 0.04 kcal/mol | 2.194 ± 0.012 kcal/mol | 2.31 ± 0.046 kcal/mol
SAGGSAGGSAGGMIKIKLGDKWVDVAEVKEYPDSIIVYNPKTNTKITISKKNPEDPNILISAGGSAGGSAGG [r7_391_JUSTAS] | 0.463 ± 0.09 kcal/mol | 1.47 ± 0.081 kcal/mol | 1.01 ± 0.21 kcal/mol
SAGGSAGGSAGGMINIEGSSFEIVQPDGKPIGSESTGSAEELAKKLPSSYSVLPKGVPPSAGGSAGGSAGGS [r10_310_JUSTAS] | 1.67 ± 0.21 kcal/mol | 2.72 ± 0.11 kcal/mol | 2.25 ± 0.27 kcal/mol
SAGGSAGGSAGGMIVETLGDSPETVTLVKLPNKPIIRTYDPVTGTWTIYDPDTNKIYEISAGGSAGGSAGGS [r10_434_JUSTAS] | 1.39 ± 0.052 kcal/mol | 0.872 ± 0.14 kcal/mol | 1.26 ± 0.098 kcal/mol
SAGGSAGGSAGGMKIKNAEIVEVKEENGKKTLLVKNKETGKYYKITIDDNKITIEEVKVPSAGGSAGGSAGG [r7_940_TrROS_Hall] | 2.21 ± 0.32 kcal/mol | 4.13 ± 0.13 kcal/mol | 3.87 ± 0.52 kcal/mol
SAGGSAGGSAGGMKIKTITGDPSTGVYTITFPDGKVETIPMTQEEVEALAKENPGIEITLSAGGSAGGSAGG [r7_175_JUSTAS] | 0.899 ± 0.035 kcal/mol | 2.81 ± 0.049 kcal/mol | 2.46 ± 0.097 kcal/mol
SAGGSAGGSAGGMKITKVEVFERPDGYLVVKMEIELTNENGEKVKLELVFVFKPGEVIESAGGSAGGSAGGS [r10_1183_TrROS_Hall] | 3 ± 0.15 kcal/mol | 4.96 ± 0.2 kcal/mol | 4.72 ± 0.31 kcal/mol
SAGGSAGGSAGGMKLVTLPDGKTYPFTSLEEFKEALLKETGKPVDLKNPVIYPVPPGLSSAGGSAGGSAGGS [r10_62_JUSTAS] | 0.401 ± 0.14 kcal/mol | 0.959 ± 0.084 kcal/mol | 0.99 ± 0.22 kcal/mol
SAGGSAGGSAGGMKTIVFTTLSPEEAQALADELKAKGVDVEVTYEPVPVTPRPLPLNRLSAGGSAGGSAGGS [r10_361_JUSTAS] | 2.04 ± 0.059 kcal/mol | 3.06 ± 0.063 kcal/mol | 2.57 ± 0.097 kcal/mol
SAGGSAGGSAGGMKVIKIEDVEKVKAEAKKNGIKVTYKKENDGEIIAYIEKIPKSIKNKSAGGSAGGSAGGS [r10_218_JUSTAS] | -0.832 ± 0.34 kcal/mol | 0.449 ± 0.14 kcal/mol | -0.00327 ± 0.23 kcal/mol
